Reference: the domain aggregation screens of Martell et al. (2025)

Experiment: soluble fraction after stress (log2 fold change); higher = more stays soluble; pooled small domains, quantitative proteomics
Settings: stress: 75 degC
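Note: 20 min heating vs room temperature control held 20 min.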

Sequence	soluble fraction (log2)
HMEDIEEVIVEIDTVLRTHFDRGRTEVLFAEIETAGGRPFMTYLALLFMAHRGSVRLQQDDLFGDLWVKDP	0.198
HMEDISLYKILRAHSIDNLKLSQWIIDSLKTKFSTIGELQDAKIDDIRMYRIQDVRIEKIKNAVTEYMA	-1.08
HMEDISQHAVKKLVQEMVMAEDPRDPLSDQQIAENLSRLGLKVARRTVAKYRAMLGIQPSNRRRK	-1.21
HMEDIVDLVVEPEAAGRRLDAWLASRIERLSRSRIKALIESGHVAIGGATIVEAKKPVNSGDVVQLSVPEG	-0.263
HMEDKQRRMGELVALLNRAAYAYYTKDEPIMADVQYDRLYDELLSLEKETGVQMADSPTHRV	0.0301
HMEDLMEERKEHLLSVMKDPAYVPMKQKELAMLLNVPKGLREELNQVLDALVAEGSVVMSKRGKYTIPQ	-0.0948
HMEDNLVTYPNPTSDYIYVSKKVDLTVVNMLGDILIQKQNINVLDVTELTPGMYTIVIRYNNVTTNKRIIK	-0.017
HMEDPFATLGVHREASLDEIKRAYRRLAMFWHPDRNPEAVAGTEFKRVHAAYELLLDPQRLAEWQQAQAT	-0.19
HMEDPLAAQWKQGRKLFHDDYGYGIISKAFTAGDELVIMVQFENGGEKRFLPKYQAHNLLLVEQ	-1.33
HMEDQVITQFNMRLIRAVMPQGAPMIVVYEDPKDYPGLFVARLFDGRKSTHLIALADTLEDI	-0.31
HMEDVDTAALEKVIATAKGLNKNDYTATTWTTMQAALTNAEKALEAKKSQTSVDEAAKTLQAAIDGLKKAS	0.336
HMEDVPYMIKLPSHHYLTKMVDGSTGWSLVQNSNTVVGSSKEELLKQYPEYEDFIVQEPLNV	-0.0186
HMEDVSTLAVKQRIDDLVKQENPAKPLSDSDIVARLKTDGIYIARRTVAKYRMELNIPSSSARKRAQQFS	-2.31
HMEDWTPERFVGAFVSGGPALRDEILLAATKDLSHAQATRLLKLAEARGLVHRSQPGPSERVRFVVARK	-0.518
HMEDYTPLQELGLKARYIELLEKGGIFSVEDLVQKSVDDLKDIDGIGEKTAKEIWEIVDSMVDF	0.0226
HMEDYYKEDYYTEVLKIPKEYIKGFQYYLIEDAEFVNALNAKNKTMTSFLAKKLASDYIEIIHQEQ	-2.2
HMEEDDGVDFHERLTELNDEQVYYLINTEPAKVIALALDQLGQKRKINIMNRFNPDMKHSIIMELGKL	-0.543
HMEEDGAPLESREVLLDQAISQGKGTQWTIATETKLEDHIVSGAYSTDGKVTLAVFSPLGDGKYEFSSSVN	0.181
HMEEDPIIIAQRFLNIFRQLHIFSEEKKESFNKMLLEQPAEIRGALRSLPGGGLLQDYIDDLESKA	-0.698
HMEEEEITIHIIGEVKYPGIVILKTGQRIIDAIDAAGGETEEADLNKINLAQLLSDGDKIYVPSINDN	0.158
HMEEFAGYINGQPYYGPTHQHRGVKMVGAEHTQRPHPLVWDSVAKSLDNYDNRFQWVNGNLLQVV	-0.0201
HMEEFGRRLKERMIDKNMTEAELAQKTELWSSILTSYLKGERFPGYYTLLRIAEALDVSIDFLLGLRDEPE	-2.72
HMEEILLSVKADGTYWVDQKEVTLDEVGALLDKEPDRLLNIFMDEKVPVRHFINVVDIAKVKREGRFII	-0.27
HMEEIQLILAKNLKSIREKEKLSLEKVSQLTGVSKTMIGQIERGDSSPTLTTIWKIANGLKVSFTSLINNP	-3.06
HMEEKKYEVGDVVSFNYLYKNSFAEGKVSSLIHSGTITRIIDGRPAPYLINRGTGWLSNDLILT	-1.21

Sequence	soluble fraction (log2)
HMEEKNNIIVSYIEDKISELEKASMYVPNENKEKLIMAFKNRNEDIDVIKTRIDTIFNNSVAAYKENME	0.557
HMEEKTMNLPPSAKLVYKILSYEGNLTQKEIINMTYLPERTVRHALELLLGKRLITRQAYLNDARQSVYG	-1.72
HMEEKVEVPNLSGKTYQQAKALLESYGLVAAKGGEEESEEPVGKVSRWSSAGKSVKKGTTITVWISGGI	-0.298
HMEEKWKENYEKIKLFISINNRYPSVYSEDKEEGLIGSFMSNQKRRKNKLSKEKMALFEALPNWIWE	-2.53
HMEELNFYPNPAYKYINLDYVGLKEIYTVLGKKLLETYDTRINISNLNSGIYLIKFKNQALRFVK	0.0302
HMEELVGFEEKVRSILTSPLSAKEIKEKTHIEIDTRKLSKMLSELSFIKTEKKNGKKIFRLVS	-0.243
HMEEMADILKTRIDTLDLSTRTLNALTGANIRTVGGIARKKKEDLLELAGMGEKGIQEIKKVLGGFGITL	-0.157
HMEEPEYELLRQAVLALPEKYRLPIHLYYYEEYSVREIAEILQRKESAVQTQLQRGREKIRRSLTEKGVS	-0.874
HMEEPLIISIDSNGAVYLEVDSFKDQSIEMSSLREIIEKIILANPDIQVVVRGDSEVKYEKVMDLMSILQS	-1.58
HMEEQGLPLVIISDGKVLAQNLTLRSLDRAWLQDQLTQHGHSKPEQVFLLTVDERGAVYYVPKE	-0.556
HMEEQQIQLIQMKMEKDHKYVGKKISELRIKNMLIVLIKRGDEDIIPRAEVKIKEGDILVLSAQSYEG	-0.424
HMEETAFEKLSPLQKLRALGKPLTMINMRDGSQIAGSVQRSDDKFLYLDTGDGIAKLPVEEILRRTPM	0.149
HMEETIVFGQQKAINALSSDAGLSSNELDSYLKKRYKRPLYQLSKSEGAELIQGFQDGSLSKASIMDYVS	0.19
HMEEVIEVEGKITAVLPSTMFRAELENGHQVLAHISGKLRKHFIKITVGDIVKMEMSTQDLQKARIV	-0.411
HMEEVRFPLKKEILLWALKEAQVDEDEVFRKFTNLEKWINGEKHPTFKQIESLANYLKIPFGYMFLEKPPI	-1.02
HMEEVVIPDLAGLTEEEATKVLMAKELKLKVSGSQHSDIEKGLIISQDPPAGEKGAKNSQVAVVTSSG	0.0827
HMEFDFGAILSGNGGSELYSGYSAEQKAALVEAAKADGMDVEFGADGSTTFKDKDGSEVVQKADGTWTV	0.235
HMEFDVELTSFEEAKKLKVIKEVKDVTGLSLGEAKDLVMGAPKAIKTGVSKEEAEAIKTQIEAAGAVVTI	0.101
HMEFDYIVKVPDVRNKKIEDAGKILIDLGLKYTTESDYITQDLKVIDQFPLPGTEVSKGSIIDIYLEEDFK	-0.473
HMEFEKYKYHYIFDDVLGLRIVWDRGKEHFSYFVNEELAEKSRKSDKDALEVMFYLEHKRWPEEGELENY	-1.67
HMEFEYTVVVPETRGKTIGEAGRILLDLELKYTSESMNIREDSKVIDQFPSPGTEVSKGSIIDLYLDE	-0.137
HMEFQISLAAARVNANMTQEDTARAMKVSKTTIVNWEKGKVIPGIPEVEMMSRLYGIPQDYIFLP	-3.08
HMEFSYLEEIGHEKGDLIKGLQLIQQKEGYVSDDAVRAVAENFGMSPAEVEGVLTFYAQFKR	-0.162
HMEGFKSVYFLTTPSGAEISDRSVGDIISKTPSLVSAQEGTEFEFNLKGYQPSFYMINKRSPDRVFVELIP	-0.545
HMEGLEKDDGGYYFEKDNGERARNEWVYVEYEGKGYWYYMTDYGYPLRSAITPDGYKVNSNGHWIDEGN	-0.644
